Test results from paper PMC2364237.

Biological target: GST-Grb2(SH2) SH2 domain (UniProt P62993)
Test: GST-Grb2(SH2) pull-down, anti-HA blot
Details: reference: HA-ShcWT; sites Y317

binding against the reference: weaker
Substance: HA-tagged Shc (52 kDa isoform) (from UniProt P29353-2) HA-ShcY317F
